B1: Mothers against decapentaplegic homolog 4 (Homo sapiens), Q13485 (parent)
chain: MDNMSITNTPTSNDACLSIVHSLMCHRQGGESETFAKRAIESLVKKLKEKKDELDSLITAITTNGAHPSKCVTIQRTLDGRLQVAGRKGFPHVIYARLWRWPDLHKNELKHVKYCQYAFDLKCDSVCVNPYHYERVVSPGIDLSGLTLQSNAPSSMMVKDEYVHDFEGQPSLSTEGHSIQTIQHPPSNRASTETYSTPALLAPSESNATSTANFPNIPVASTSQPASILGGSHSEGLLQIASGPQPGQQQNGFTGQPATYHHNSTTTWTGSRTAPYTPNLPHHQNGHLQHHPPMPPHPGHYWPVHNELAFQPPISNHPAPEYWCSIAYFEMDVQVGETFKVPSSCPIVTVDGYVDPSGGDRFCLGQLSNVHRTEAIERARLHIGKGVQLECKGEGDVWVRCLSDHAVFVQSYYLDREAGRAPGDAVHKIYPSAYIKVFDLRQCHRQMQQQAATAQAAAAAQAAAVAGNIPGPGSVGGIAPAISLSAAAGIGVDDLRRLCILRMSFVKGWGPDYPRQSIKETPCWIEIHLHRALQLLDEVLHTMPIADPQPLD

One assay covers variants of B1. To be noted: with tshr_human TSHR.
With G386D, the “effect of a mutation on the interaction” value is given as “increasing interaction strength”.

In another assay the parent is B1. Particulars: with smad2_human SMAD2, Q15796.
Chain of smad2_human SMAD2, Q15796 (Q15796 whole entry): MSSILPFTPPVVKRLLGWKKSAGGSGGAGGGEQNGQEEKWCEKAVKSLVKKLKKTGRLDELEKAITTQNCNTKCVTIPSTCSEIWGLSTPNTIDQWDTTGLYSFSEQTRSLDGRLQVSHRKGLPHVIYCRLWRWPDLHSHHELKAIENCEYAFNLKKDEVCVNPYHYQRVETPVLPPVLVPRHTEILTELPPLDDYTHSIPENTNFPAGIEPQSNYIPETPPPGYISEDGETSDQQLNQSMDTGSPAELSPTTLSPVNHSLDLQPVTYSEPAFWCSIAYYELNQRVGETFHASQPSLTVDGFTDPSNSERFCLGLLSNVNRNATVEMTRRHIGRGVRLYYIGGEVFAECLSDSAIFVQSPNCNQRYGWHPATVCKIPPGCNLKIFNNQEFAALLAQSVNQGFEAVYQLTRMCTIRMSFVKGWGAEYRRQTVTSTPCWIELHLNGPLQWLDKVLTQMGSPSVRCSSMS
G386D: the “effect of a mutation on the interaction” value is recorded as “disrupting interaction strength”.

Variants of B1 are the subject of another assay. To be noted: with smad3_human SMAD3, P84022.
Chain of smad3_human SMAD3, P84022 (P84022 whole entry, looked up): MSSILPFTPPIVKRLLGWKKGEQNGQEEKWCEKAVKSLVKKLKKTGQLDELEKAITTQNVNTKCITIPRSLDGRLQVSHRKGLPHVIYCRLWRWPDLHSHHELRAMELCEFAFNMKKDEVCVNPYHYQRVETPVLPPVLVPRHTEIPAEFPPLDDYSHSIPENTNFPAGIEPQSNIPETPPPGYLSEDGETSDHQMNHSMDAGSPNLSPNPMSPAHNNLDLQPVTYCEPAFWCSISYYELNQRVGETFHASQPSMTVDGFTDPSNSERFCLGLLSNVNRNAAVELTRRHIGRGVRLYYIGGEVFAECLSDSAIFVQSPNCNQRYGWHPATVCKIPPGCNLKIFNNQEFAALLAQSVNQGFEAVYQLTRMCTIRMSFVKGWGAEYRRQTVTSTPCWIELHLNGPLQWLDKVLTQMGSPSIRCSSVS
As to G386D, the “effect of a mutation on the interaction” value is given as “decreasing interaction strength”.

Another assay covers variants of B1. To be noted: with cdk6_human CDK6, Q00534.
Chain of cdk6_human CDK6, Q00534 (Q00534 whole entry): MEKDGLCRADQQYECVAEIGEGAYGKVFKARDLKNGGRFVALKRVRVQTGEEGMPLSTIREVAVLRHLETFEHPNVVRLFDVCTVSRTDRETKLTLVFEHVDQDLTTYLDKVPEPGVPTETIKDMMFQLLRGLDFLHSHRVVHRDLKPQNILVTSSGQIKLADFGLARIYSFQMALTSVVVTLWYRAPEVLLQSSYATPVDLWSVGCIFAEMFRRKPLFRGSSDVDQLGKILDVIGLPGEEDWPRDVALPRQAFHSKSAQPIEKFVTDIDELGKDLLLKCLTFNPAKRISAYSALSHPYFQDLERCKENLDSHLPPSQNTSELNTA
As to G386D, the “effect of a mutation on the interaction” value is “decreasing interaction strength”.

In the next assay the parent is B1. Particulars: with ccnd1_human CCND1, P24385.
Chain of ccnd1_human CCND1, P24385 (P24385 whole entry): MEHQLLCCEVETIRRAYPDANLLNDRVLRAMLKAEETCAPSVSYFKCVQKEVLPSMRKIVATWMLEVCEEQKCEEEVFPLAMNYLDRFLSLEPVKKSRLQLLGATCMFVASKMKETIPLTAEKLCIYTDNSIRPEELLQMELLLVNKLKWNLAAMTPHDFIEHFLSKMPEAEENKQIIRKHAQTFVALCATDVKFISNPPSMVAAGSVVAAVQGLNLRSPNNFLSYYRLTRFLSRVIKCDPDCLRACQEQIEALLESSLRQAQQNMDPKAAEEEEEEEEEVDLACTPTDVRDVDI
On to G386D, for which the “effect of a mutation on the interaction” value is reported as “decreasing interaction strength”.

Another assay covers variants of B1. To be noted: with akt1_human AKT1, P31749.
Chain of akt1_human AKT1, P31749 (P31749 whole entry): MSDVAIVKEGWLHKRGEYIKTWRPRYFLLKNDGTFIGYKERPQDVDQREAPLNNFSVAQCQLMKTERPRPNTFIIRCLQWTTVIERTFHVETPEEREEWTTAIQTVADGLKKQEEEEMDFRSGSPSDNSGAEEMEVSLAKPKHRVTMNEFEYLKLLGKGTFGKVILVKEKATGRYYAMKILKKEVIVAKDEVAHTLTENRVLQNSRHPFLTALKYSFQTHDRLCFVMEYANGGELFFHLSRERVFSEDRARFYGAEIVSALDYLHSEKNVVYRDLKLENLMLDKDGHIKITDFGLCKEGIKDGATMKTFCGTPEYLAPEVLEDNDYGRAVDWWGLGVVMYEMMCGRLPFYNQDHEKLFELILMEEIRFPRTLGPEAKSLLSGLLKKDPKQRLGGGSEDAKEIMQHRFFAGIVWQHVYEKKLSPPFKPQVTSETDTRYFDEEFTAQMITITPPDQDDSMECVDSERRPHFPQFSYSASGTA
G386D: the “effect of a mutation on the interaction” value was “decreasing interaction strength”.

In a further assay the parent is B1. Particulars: with pk3cb_human PIK3CB.
In the case of G386D, the “effect of a mutation on the interaction” value is listed as “decreasing interaction strength”.

Variants of B1 are the subject of another assay. To be noted: with jak1_human JAK1, P23458.
Chain of jak1_human JAK1, P23458 (P23458 whole entry): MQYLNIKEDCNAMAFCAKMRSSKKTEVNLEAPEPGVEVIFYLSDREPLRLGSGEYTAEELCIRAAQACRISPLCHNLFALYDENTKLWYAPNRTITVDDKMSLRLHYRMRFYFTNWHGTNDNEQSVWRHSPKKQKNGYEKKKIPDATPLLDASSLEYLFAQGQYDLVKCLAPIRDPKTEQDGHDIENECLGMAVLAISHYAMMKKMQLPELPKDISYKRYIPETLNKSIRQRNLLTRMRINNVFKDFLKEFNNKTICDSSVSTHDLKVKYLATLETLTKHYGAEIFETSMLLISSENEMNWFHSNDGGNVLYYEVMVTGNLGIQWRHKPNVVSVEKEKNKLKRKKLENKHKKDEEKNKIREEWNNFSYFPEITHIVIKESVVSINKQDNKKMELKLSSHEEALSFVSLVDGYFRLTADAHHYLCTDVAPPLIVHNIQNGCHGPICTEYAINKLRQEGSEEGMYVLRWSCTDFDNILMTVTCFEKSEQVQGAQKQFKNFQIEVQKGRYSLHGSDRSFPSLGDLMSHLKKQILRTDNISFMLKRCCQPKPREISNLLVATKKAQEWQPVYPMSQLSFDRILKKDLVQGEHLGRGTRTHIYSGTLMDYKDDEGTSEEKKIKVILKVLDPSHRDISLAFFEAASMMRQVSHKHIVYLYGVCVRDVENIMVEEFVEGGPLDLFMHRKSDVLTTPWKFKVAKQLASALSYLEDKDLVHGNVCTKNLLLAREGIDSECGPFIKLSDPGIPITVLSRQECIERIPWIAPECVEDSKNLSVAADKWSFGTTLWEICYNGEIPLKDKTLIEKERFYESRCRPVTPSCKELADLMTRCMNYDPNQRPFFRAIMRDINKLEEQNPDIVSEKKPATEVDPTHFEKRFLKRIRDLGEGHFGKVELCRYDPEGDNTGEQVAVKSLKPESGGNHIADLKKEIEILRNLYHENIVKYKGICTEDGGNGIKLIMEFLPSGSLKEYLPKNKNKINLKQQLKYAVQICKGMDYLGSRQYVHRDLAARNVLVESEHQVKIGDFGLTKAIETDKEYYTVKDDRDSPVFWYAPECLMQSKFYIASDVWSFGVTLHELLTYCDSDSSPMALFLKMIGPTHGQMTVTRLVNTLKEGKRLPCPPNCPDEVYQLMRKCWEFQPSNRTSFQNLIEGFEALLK
Consider G386D, for which the “effect of a mutation on the interaction” value is reported as “decreasing interaction strength”.

Another assay covers variants of B1. To be noted: with jak3_human JAK3, P52333.
Chain of jak3_human JAK3, P52333 (P52333 whole entry): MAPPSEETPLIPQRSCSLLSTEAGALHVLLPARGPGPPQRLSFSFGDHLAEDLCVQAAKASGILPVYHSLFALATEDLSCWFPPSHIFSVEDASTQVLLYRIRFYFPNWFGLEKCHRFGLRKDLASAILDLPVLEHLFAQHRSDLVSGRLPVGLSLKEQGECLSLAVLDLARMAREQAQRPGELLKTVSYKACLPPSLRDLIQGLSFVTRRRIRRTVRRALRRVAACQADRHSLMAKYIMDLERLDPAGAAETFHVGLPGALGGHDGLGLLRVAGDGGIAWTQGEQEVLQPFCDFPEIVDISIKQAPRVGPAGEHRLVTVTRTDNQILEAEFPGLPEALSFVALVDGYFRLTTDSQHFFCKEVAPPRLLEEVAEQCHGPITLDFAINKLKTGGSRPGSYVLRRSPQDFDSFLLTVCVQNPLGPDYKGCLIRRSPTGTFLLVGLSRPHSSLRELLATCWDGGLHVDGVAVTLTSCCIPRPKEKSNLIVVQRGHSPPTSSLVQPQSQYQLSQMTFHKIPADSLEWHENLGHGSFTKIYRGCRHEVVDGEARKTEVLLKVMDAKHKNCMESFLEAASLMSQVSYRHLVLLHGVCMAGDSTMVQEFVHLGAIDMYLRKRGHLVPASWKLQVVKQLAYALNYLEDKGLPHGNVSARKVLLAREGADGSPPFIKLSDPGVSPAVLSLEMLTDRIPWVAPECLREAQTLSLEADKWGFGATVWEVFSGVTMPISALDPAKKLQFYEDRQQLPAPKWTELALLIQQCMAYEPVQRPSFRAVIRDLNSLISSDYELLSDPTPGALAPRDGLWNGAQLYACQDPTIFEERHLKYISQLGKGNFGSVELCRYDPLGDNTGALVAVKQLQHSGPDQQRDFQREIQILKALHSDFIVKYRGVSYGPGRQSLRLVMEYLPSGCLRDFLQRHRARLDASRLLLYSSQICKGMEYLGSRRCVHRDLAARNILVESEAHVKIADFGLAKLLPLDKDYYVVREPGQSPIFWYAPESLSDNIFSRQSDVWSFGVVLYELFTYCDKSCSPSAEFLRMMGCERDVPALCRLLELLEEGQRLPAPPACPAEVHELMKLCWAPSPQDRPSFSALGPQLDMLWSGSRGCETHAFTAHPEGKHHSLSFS
As to G386D, the “effect of a mutation on the interaction” value was “decreasing interaction strength”.

Variants of B1 are the subject of a further assay. To be noted: with baba2_human BABAM2, Q9NXR7.
Chain of baba2_human BABAM2, Q9NXR7 (Q9NXR7 whole entry): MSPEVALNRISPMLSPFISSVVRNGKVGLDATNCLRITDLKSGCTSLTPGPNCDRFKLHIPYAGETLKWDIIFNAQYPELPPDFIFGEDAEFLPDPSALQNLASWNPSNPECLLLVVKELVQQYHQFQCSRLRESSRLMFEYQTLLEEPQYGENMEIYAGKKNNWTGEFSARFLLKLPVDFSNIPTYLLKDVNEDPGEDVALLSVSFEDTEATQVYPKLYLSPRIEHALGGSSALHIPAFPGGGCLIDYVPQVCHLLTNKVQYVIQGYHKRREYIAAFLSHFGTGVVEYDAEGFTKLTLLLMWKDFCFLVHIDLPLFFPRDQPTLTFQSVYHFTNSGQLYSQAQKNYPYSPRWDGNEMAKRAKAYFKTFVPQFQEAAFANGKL
Regarding G386D, the “effect of a mutation on the interaction” value is listed as “increasing interaction strength”.

Source of the values: IntAct's records for PubMed 35512704.
